In this experiment the target is T1, mEGFP-SRSF2, Q01130.
T1 chain: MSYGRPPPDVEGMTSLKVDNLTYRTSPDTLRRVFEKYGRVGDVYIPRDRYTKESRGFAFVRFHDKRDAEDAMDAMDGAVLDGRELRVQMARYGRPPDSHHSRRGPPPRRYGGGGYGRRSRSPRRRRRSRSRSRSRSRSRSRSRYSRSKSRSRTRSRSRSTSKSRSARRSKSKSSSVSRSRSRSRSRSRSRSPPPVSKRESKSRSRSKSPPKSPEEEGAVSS
The experiment can be described thus: SEC-MALS; purified protein, static light scattering after the molecular sieve; before addition of PEG8000. The note with it: remark: other sources report otherwise.

1 molecule from PMC10258192 can be followed below.

B1: mEGFP-SRSF2, Q01130 1-221 (natural protein)
chain: T1 chain
Consider B1, for which the stoichiometry N came out at 5000.

The stoichiometry N is the number of molecules, sites or subunits per partner or assembly.
